This note sets out measurements from patent US20260209363A1 (Chugai, published 2026).

The target of experiment [1] is T1, human soluble IL-6R (human, UniProt P08887 20-357, limits assumed).
T1 construct: Soluble form; also called sIL6R; Human IL-6R
T1 sequence (looked up): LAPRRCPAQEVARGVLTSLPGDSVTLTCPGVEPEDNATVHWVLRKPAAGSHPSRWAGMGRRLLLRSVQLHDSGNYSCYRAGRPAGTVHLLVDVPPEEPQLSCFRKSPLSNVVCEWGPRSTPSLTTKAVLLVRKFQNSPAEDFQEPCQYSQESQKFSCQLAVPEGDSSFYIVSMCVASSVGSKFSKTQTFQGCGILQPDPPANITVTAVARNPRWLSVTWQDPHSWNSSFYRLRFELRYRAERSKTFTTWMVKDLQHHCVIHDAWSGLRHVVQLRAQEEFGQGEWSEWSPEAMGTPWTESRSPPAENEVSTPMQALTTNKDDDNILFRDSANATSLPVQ
As to the kind of experiment: SPR (Biacore T200), antibody captured on Protein G, human IL-6R as analyte, 37 degrees C, no albumin. As for the experimental part:
Binding activities of the produced albumin switch molecules against human IL-6R were evaluated using Biacore T200 (Cytiva). As the running buffer, 50 mM Na Phosphate (pH 7.4), 150 mM NaCl, 0.05% Tween20 was used, and the evaluation was performed at 37 degrees C. First, Protein G (CALBIOCHEM) was used as a ligand-capturing molecule. Protein G (CALBIOCHEM) was solid-phased on a Series S Sensor Chip CM4 (Cytiva) using an Amine Coupling Kit (Cytiva). Antibody solution prepared using the running buffer was allowed to interact with this CM4 sensor chip to capture approximately 200 RU of the antibody. Human IL-6R used in the present measurement was prepared by an approach described in WO2018097307 (Example 3-2). Human IL-6R was diluted to 0, 100, and 400 nM with the running buffer, and allowed to bind to the captured antibody. The chip was regenerated using 3 M MgCl₂, and measurements were performed by repeatedly capturing the antibodies. Dissociation constant (KD) of each antibody for human IL-6R was calculated using Biacore T200 Evaluation Software 2.0. Specifically, the association rate constant ka (L/mol/s) and the dissociation rate constant kd (1/s) were calculated by global fitting of the sensorgrams obtained by measurement with the 1:1 Langmuir binding model, and the dissociation constant KD (mol/L) was calculated from these values.
Background: Surface plasmon resonance follows binding to a sensor surface in real time, without labels.

The target of experiment [2] is T1, human soluble IL-6R. As to the kind of experiment: Gyrolab xP immunoassay of antibody-antigen complex in C57BL/6J mouse plasma (albumin present), 1 nM antibody, 4 nM antigen.
For a further experiment, the target named is T2, rat albumin (rat, UniProt P02770 25-608).
T2 construct: also called albumin in SD rat plasma
As to the kind of experiment: inferred from reduced antigen complex in rat plasma (Gyrolab xP).

Experiment [3] has as its target T1, human soluble IL-6R. As to the kind of experiment: in vivo KD in mouse plasma (albumin present), from total antibody, free and bound sIL6R 5 min after sIL6R; antibody 0.2 mg/kg IV. As for the experimental part:
(§1) Next, free sIL6R in plasma was measured. The concentration of free sIL6R in plasma was measured on a fully automated ELISA system (Gyrolab xP workstation). First, sIL6R prepared at 23.4, 46.9, 93.8, 188, 375, 750, and 1500 ng/mL using a Protein-Free (PBS) Blocking Buffer (Thermo Scientific) was used as solutions for preparing the calibration curve. Mouse plasma samples were used in the measurements without diluting them. A solution of biotin-labeled H54 diluted to 10 micro g/mL using a Protein-Free (PBS) Blocking Buffer was used as a solution of the sIL6R-capturing molecule. Alexa Fluor (registered trademark) 647-labeled anti-human IL-6R antibody (R&D Systems) diluted to 1 micro g/mL using a Protein-Free (PBS) Blocking Buffer was used as a solution of the human IL-6R-detection molecule. PBS (pH 7.4) containing 0.05% TWEEN was used as a washing solution. The calibration curve solutions, mouse plasma samples, sIL6R-capturing molecule solution, sIL6R-detection molecule solution, and the washing solution were placed onto a PCR plate, and then the PCR plate was sealed with a plate sealer. After the PCR plate and the Bioaffy 200 disc were placed in the Gyrolab xP workstation, measurements were taken. Using the data processed by the Gyros Evaluater 3.6.2.30 software and the calibration curve concentrations, the concentration of free sIL6R in plasma was calculated by logistic regression using the XLfit 5.5.0.5 software.
Additionally, bound sIL6R in plasma was measured. The concentration of bound sIL6R in plasma was measured on an electrospray ionization mass spectrometer connected to a high-performance liquid chromatography (LC/ESI-MS/MS). First, H54//IC17 and sIL6R were mixed, and solutions for preparing the calibration curve of bound sIL6R were prepared at theoretical plasma concentrations of 0.0468, 0.467, 4.60, and 20.1 nmol/mL. […]

Another experiment concerns the target T3, human albumin (human, UniProt P02768 25-609).
T3 construct: also called albumin in human plasma
As to the kind of experiment: inferred from reduced antigen complex in human plasma (Gyrolab xP).

The target in experiment [4] is T1, human soluble IL-6R. Briefly: in vivo KD in mouse plasma (albumin present), from total antibody, free and bound sIL6R 5 min after sIL6R; antibody 1 mg/kg IV. As for the experimental part:
as §1
Additionally, bound sIL6R in plasma was measured. The concentration of bound sIL6R in plasma was measured on an electrospray ionization mass spectrometer connected to a high-performance liquid chromatography (LC/ESI-MS/MS). First, H54//IC17 and sIL6R were mixed, and solutions for preparing the calibration curve of bound sIL6R were prepared at theoretical plasma concentrations of 0.0468, 0.467, 4.60, and 20.1 nmol/mL. The solutions for preparing the calibration curve and 1 or 2 micro L of a plasma sample were added to 75 or 150 micro g of magnetic beads (Magnosphere MS300/Carboxyl, JSR) to which anti-delta GK antibodies were solid-phased, and this was shaken at 25 degrees C. for one hour.

A further experiment deals with T4, mouse albumin (mouse, UniProt P07724 25-608).
T4 construct: also called recombinant mouse Albumin; mouse serum albumin
As to the kind of experiment: SPR (Biacore T200), antibody captured by anti-human Fc antibody, mouse albumin as analyte, 25 degrees C. As for the experimental part:
Binding activities of the produced antibodies against mouse albumin were evaluated using Biacore T200 (Cytiva).
As the running buffer, 50 mM Na Phosphate (pH 7.4), 150 mM NaCl, 0.05% Tween20 was used, and the evaluation was performed at 25 degrees C. First, anti-human Fc antibody (Cytiva) was used as a ligand-capturing molecule. Anti-human Fc antibody (Cytiva) was solid-phased on a Series S Sensor Chip CM4 (Cytiva) using an Amine Coupling Kit (Cytiva). Antibody solution prepared using the running buffer was allowed to interact with this CM4 sensor chip to capture approximately 120 RU of the antibody. Mouse albumin (Bioscience) was diluted to 0 and 300 nM with the running buffer and allowed to bind to the captured antibody. The chip was regenerated using 3 M MgCl₂, and measurements were performed by repeatedly capturing the antibodies. Dissociation constant (KD) of each antibody for mouse albumin was calculated using Biacore T200 Evaluation Software 2.0. Specifically, the association rate constant ka (L/mol/s) and the dissociation rate constant kd (1/s) were calculated by global fitting of the sensorgrams obtained by measurement with the 1:1 Langmuir binding model, and the dissociation constant KD (mol/L) was calculated from these values.

T3 sequence (P02768 25-609 limits assumed): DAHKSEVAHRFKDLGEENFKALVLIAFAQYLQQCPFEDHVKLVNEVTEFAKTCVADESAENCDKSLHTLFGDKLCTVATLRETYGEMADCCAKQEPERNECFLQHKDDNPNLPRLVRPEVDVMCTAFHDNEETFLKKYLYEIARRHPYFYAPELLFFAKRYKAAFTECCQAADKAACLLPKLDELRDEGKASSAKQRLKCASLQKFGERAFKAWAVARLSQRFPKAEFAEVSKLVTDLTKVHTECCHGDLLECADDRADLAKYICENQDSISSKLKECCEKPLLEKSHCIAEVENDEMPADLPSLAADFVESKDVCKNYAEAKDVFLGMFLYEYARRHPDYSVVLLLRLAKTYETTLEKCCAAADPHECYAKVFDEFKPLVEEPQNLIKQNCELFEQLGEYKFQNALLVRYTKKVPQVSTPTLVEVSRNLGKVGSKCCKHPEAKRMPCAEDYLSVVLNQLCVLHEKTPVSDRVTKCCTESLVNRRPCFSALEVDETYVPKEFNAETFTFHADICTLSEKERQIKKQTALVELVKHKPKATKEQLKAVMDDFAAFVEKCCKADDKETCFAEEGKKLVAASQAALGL
T2 sequence (P02770 25-608 limits assumed): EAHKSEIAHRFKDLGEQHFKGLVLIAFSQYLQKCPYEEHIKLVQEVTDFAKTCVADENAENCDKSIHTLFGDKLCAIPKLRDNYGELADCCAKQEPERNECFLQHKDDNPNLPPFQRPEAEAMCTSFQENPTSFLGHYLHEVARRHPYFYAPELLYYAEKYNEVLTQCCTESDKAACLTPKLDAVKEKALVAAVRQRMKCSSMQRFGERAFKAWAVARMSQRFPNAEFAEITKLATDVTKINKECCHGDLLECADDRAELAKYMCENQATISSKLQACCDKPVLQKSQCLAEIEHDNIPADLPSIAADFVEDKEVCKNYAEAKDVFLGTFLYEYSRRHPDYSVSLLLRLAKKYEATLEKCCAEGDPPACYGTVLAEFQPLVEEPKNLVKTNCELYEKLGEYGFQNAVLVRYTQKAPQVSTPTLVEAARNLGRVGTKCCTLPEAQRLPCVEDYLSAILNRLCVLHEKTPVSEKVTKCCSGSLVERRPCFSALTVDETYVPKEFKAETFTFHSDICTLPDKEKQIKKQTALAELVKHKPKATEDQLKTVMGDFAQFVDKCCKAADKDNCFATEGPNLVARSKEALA

B1: ABD094(H/L)-H54//IC17 (bispecific antibody, human IgG1, kappa)
heavy 1: LAEAKEAANAELDSYGVSDFYKRLIDKAKTVEGVEALKDAILAALPQVQLQESGPGLVKPSETLSLTCAVSGYSISDDQAWSWVRQPPGEGLEWIGYISYSGITNYNPSLKGRVTISRDTSKNQFSLKLSSVTAADTAAYYCARSLARTTAMDYWGEGTLVTVSSASTKGPSVFPLAPSSKSTSGGTAALGCLVEDYFPEPVTVSWNSGALTSGVHTFPAVLQSSGLYSLSSVVTVPSSSLGTQTYICNVNHKPSNTKVDERVEPKSCDKTHTCPPCPAPELRRGPSVFLFPPKPKDTLMISRTPEVTCVVVDVSHEDPEVKFNWYVDGVEVHNAKTKPREEQYNSTYRVVSVLTVLHQDWLNGKEYKCKVSNKALPAPIEKTISKAKGQPREPQVCTLPPSREEMTKNQVSLSCAVKGFYPSDIAVEWESNGQPENNYKTTPPVLDSDGSFFLVSKLTVDKSRWQQGNVFSCSVMHEALHNHYTQKSLSLSP
light 1: LAEAKEAANAELDSYGVSDFYKRLIDKAKTVEGVEALKDAILAALPDIQMTQSPSSLSASVGDSVTITCQASQDISSYLNWYQQKPGKAPELLIYYGSELHSGVPSRFSGSGSGTDFTFTISSLEAEDAATYYCQQGNSLPYTFGQGTKVEIERTVAAPSVFIFPPSDRKLKSGTASVVCLLNNFYPREAKVQWKVDNALQSGNSQESVTEQDSKDSTYSLSSTLTLSKADYEKHKVYACEVTHQGLSSPVTKSFNRGEC
heavy 2: not shown
light 2: QVQLQQSGPQLVRPGASVKISCKASGYSFTSYWMHWVNQRPGQGLEWIGMIDPSYSETRLNQKFKDKATLTVDKSSSTAYMQLSSPTSEDSAVYYCALYGNYFDYWGQGTTLTVSSASVAAPSVFIFPPSDEQLKSGTASVVCLLNNFYPREAKVQWKVDNALQSGNSQESVTEQDSKDSTYSLSSTLTLSKADYEKHKVYACEVTHQGLSSPVTKSFNRGEC
notes: also called anti-IL6R albumin switch molecule
On to B1, for which the Kd (as a rule, the equilibrium constant for the complex coming apart) stood at 3.7 nM in the experiment with human soluble IL-6R [1], 141 nM in the experiment with human soluble IL-6R [3], 306 nM with human soluble IL-6R [4] and 19.4 nM with mouse albumin. Besides, the koff – broadly, the first-order rate constant of dissociation – with human soluble IL-6R [1] worked out at 0.000779 s⁻¹; with mouse albumin, 0.00112 s⁻¹. Also, the kon (commonly the second-order rate constant of association) was found to be 210000 M⁻¹ s⁻¹ with human soluble IL-6R [1] and 57600 M⁻¹ s⁻¹ in the experiment with mouse albumin. Also, the “decrease in the signal derived from the complex, compared to H54//IC17” value with human soluble IL-6R [2] turned out to be 95%. Moreover, the binding result with rat albumin and with human albumin was “binds” in each case.

B2: ABP(H/L).N13-H54//IC17 (bispecific antibody, human IgG1, kappa)
heavy 1: QRLMEDICLPRWGCLWEDDFGGGSQVQLQESGPGLVKPSETLSLTCAVSGYSISDDQAWSWVRQPPGEGLEWIGYISYSGITNYNPSLKGRVTISRDTSKNQFSLKLSSVTAADTAAYYCARSLARTTAMDYWGEGTLVTVSSASTKGPSVFPLAPSSKSTSGGTAALGCLVEDYFPEPVTVSWNSGALTSGVHTFPAVLQSSGLYSLSSVVTVPSSSLGTQTYICNVNHKPSNTKVDERVEPKSCDKTHTCPPCPAPELRRGPSVFLFPPKPKDTLMISRTPEVTCVVVDVSHEDPEVKFNWYVDGVEVHNAKTKPREEQYNSTYRVVSVLTVLHQDWLNGKEYKCKVSNKALPAPIEKTISKAKGQPREPQVCTLPPSREEMTKNQVSLSCAVKGFYPSDIAVEWESNGQPENNYKTTPPVLDSDGSFFLVSKLTVDKSRWQQGNVFSCSVMHEALHNHYTQKSLSLSP
light 1: QRLMEDICLPRWGCLWEDDFGGGSDIQMTQSPSSLSASVGDSVTITCQASQDISSYLNWYQQKPGKAPELLIYYGSELHSGVPSRFSGSGSGTDFTFTISSLEAEDAATYYCQQGNSLPYTFGQGTKVEIERTVAAPSVFIFPPSDRKLKSGTASVVCLLNNFYPREAKVQWKVDNALQSGNSQESVTEQDSKDSTYSLSSTLTLSKADYEKHKVYACEVTHQGLSSPVTKSFNRGEC
heavy 2: not shown
light 2: B1 light 2
notes: also called ABP(H/L)-H54//IC17
Regarding B2, the Kd came out at 2.02 nM with human soluble IL-6R [1], 2 nM in the experiment with human soluble IL-6R [3], 13.4 nM with human soluble IL-6R [4] and 10.2 nM with mouse albumin. For the same molecule, the values for the koff with human soluble IL-6R [1] and with mouse albumin were 0.000951 s⁻¹ and 0.000443 s⁻¹, respectively. For the same molecule, the kon with human soluble IL-6R [1] amounted to 471000 M⁻¹ s⁻¹; with mouse albumin it was 43500 M⁻¹ s⁻¹. The binding result in the experiment with rat albumin and in the experiment with human albumin was “binds” in each case.
